Experiment: label from the status in PepcDB records

| Sequence | protein production |
| --- | --- |
| MAKKRESPKLIKIKDAIKLINQQVSLIGIVLEQREPKQCRNNDWICTLRIIDDTYPSPGLTVNVFSKTLEQLPQIKNHDDMILFTRIKMQTFDSGERVNAACSRWVSSFALFEGVDFVCYQCSTNFHEEEALYKSAMDDLRKVFAGCSQVIKAMQSISYRTKPCSEVFSFLREIKIGKRFDLVCRILHADEDTSAVFVWDGTDAPPASILAKRSEEDKAFSSLSVHTLLSRDVLLSFPTVGTILRVHLSSHLFYRVKPGDWVKLYHLLCEVDRGSWVIKVTSSTKVHHLAQDDRLVEKIMRIYDKRLSSKLGHISFWCFPSPPGLTETDDNCAPFVTLMDIITFPKVTCKYRCIVRVVAAYPWQVEDFCSDENRRHHQVLLTLEDSTATLEAFLCNKDAEYFWGLGFQDTETLRKKRNWLLGIRESSNFVAPRNPPWIECCILSYYTNKADPWNTRLYRIFGTRLLH | failed |
| RAVAGWGARPSAAPARRRARSLGVPYIALEDGFLRSFGTGRHFPPLSLVVDRLGIYYDATRESELECLLASSRTLLDGIEDAVPEAMELVRERRLSKYNQGCFLATGVPADGRRRVLVVDQTEGDMSVTLGCAEAATFEAMLAAARAESPGALICVKTHPEVAAGDKSGYLSRVTDDADTVALRHDMNPLALLEQMDRVYVVSSQMGFEALMLDKPVTCFGMPWYAGWGVTDDRQRCERRGRARSVEELFAGAYFHYTRYLDPVLH | failed |
| MLAMKLGIVGLGGWVTGAHIPALTDLGIKVDYCADIDEKRVKDLSQKTGCKGYLDYKEMLRNENPDLVLVAVPHSLHAIIALDAINNDANVYVEKPMATSFQEALTLVEASRKRNKILVVGHENRFNPAMLIAKKLIRGGEVGKIYHMRGFYIRQRGIPTSPTFIKKDLAKGGAVFDIGTHIIDLLLFLSDFPTPKSVTGKTYNAFSEDKTKFSAYPSPNLPNFKVEVEDFGSAFLKLGDEISAYVEVSWASYIKENKMEVVILGDNGGIHIDNGVLNFMRNIEDELFISSPLTQQKGSVYREVWRTVMESISKGFPEYPLCSAEQGAIGVAILESIYKSALEGREVKIDIPQWFLKQFQPRALEHHHHHH | failed |
| MEDKRNRGRRITDRITEAYYELMKIVAENNHERMFEYYVEDDEAYIFKIVNSSPAQETVYPFFKQNIDTYMSECPADSIECFKKQLDKCLLRPMRTAFQLSFISEDGKSRPVEMYMVSIPDLDKKVCMVVGVMFDIRDEKGLLDSLTGTYNHLAFENKCTSLIRQKGTKLLFVMLDVDDFKIVNDTLGHNVGDRVLSQTGQVLKEAVGANGIVGRLGGDEFAAIVFGLEDSDAVDEFCVKLSGRLKNIIFDMEYSASIGMTTGDDRELTFKDLYYEADQAMYYSKRQGKNRISFFNSIRKNDITVPHNSCAPSITDVSCRMSDREIFSYDEMPDYILAVDEESRRIVFVNKAIRNSSVMTASQIDEFISKPFEDGFIDLFLRKKEQGNRVSVFQERIIPTI | failed |
| MSLRIGVIGLGRIGTIHAENLKMIDDAILYAISDVREDRLREMKEKLGVEKAYKDPHELIEDPNVDAVLVCSSTNTHSELVIACAKAKKHVFCEKPLSLNLADVDRMIEETKKADVILFTGFNRRFDRNFKKLKEAVENGTIGKPHVLRITSRDPAPPPLDYIRVSGGIFLDMTIHDFDMARYIMGEEVEEVFADGSVLVDEEIGKAGDVDTAVVVLRFKSGALGVIDNSRRAVYGYDQRIEVFGSKGRIFADNVRETTVVLTDEQGDRGSRYLYFFLERYRDSYLEELKTFIKNVKSGEPPAVSGEDGKMALLLGYAAKKSLEEKRSVKLEEVIGEGHHHHHH | not failed |
| MDMFGVAVLIFLVTDPFGNIAVFLAALKGVAPGRRLRVAFRELAFALGLLLLFLTLGEHILSGLGLSREATGIAGGIILFVIAMRLIFPSPQGLLGEVPDGEPLLVPLATPAVAGPSALAMLITLRTTFDGPLWELYLAVVLAWAATALILLQAAFLQRFLGPRGLTAIERLAGMLLIMLSVDMLLDNLRSVLHIAA | failed |
| MLPIWFLIVIILKSVEFVITSFFLRDISKEMIFFSDLLGRIIVIIFYVLPIATYISVMFSQFLYLFIIHIFLYIICFMAFVSSALRIKRCIH | failed |
| MILFADYNTPYLFAISFVLLIGLLEIFALICGHMLSGALDAHLDHYDSITTGHISQALHYLNIGRLPALVVLCLLAGFFGLIGILLQHACIMVWQSPLSNLFVVPVSLLFTIIAVHYTGKIVAPWIPRDHSSAITEEEYIGSMALITGHQATSGNPCEGKLTDQFGQIHYLLLEPEEGKIFTKGDKVLIICRLSATRYLAENNPWPQIL | failed |
| MKKILVLGGAHIDRRGMIETETAPGASNPGSWMEEAGGGGFNAARNLSRLGFEVRIIAPRGGDVTGEVVAEAARQAGVEDTPFTFLDRRTPSYTAILERDGNLVIALADMDLYKLFTPRRLKVRAVREAIIASDFLLCDANLPEDTLTALGLIARACEKPLAAIAISPAKAVKLKAALGDIDILFMNEAEARALTGETAENVRDWPNILRKAGLSGGVVTRGASEVVAFNGTEKAILHPPLIREVKDVTGAGDAMASGYLAAIAEGKTIREALRQGAAAAAITVQSSFATSQDLSKDSVEAMLGLVPQAEMLA | not failed |
| MWVRVPPPAPFSIFLSPGDDIVKRRKSTRTSSFGVKGRESHDSSPFYSRAIYSNFSLPKPSEEDLIENPLPENLLDKVIEGDAREVLKKIPDCSIHLMVTSPPYNVGKEYDEDMTLDEYLEFIEEIMKEVYRVLVWGGRACFNVANLGRKPYIPLHAYLIHLFEKIGFLIRGEIIWDKGEAVSGSSTAWGSWMSPVNPVLRDQHEYIIVMSKGDLKRRKPSDREAKSTITREEFLEFTRSVWKFPPESAKRVGHPAPFPEELPYRCIQLYTFKGDVVLDPFAGVGTTCVAAVKTGRHFVGIEINPEYVKKAEERVKDILSKPTLFEDHC | failed |
| MPGKREMQKCSLITVLSLSVLMLAGCTTTYTMTTRTGEIIETQGKPEVDTATGMTKYADVYGYHRVMKTSEIVQTTEGASKLDWLEHHHHHH | not failed |
| MTSFDWFFVAAYLILSFGIALYFYQRAGEDTSEFFLSGRAMPWWLAGTSMVATTFAVDTPLLVTEIVAQNGIAGNWLWWNAAIGGMLTVFFFARLWRRSGVMTDVEFVEFRYSGRVAAWLRGLKALFFGLLLNILIIGWVSLAMETVIDRLFPDLTLFGQAAFSVLGREMSAALVVTGGLILLVSVYALLSGLWGVMVTDLFQFVVAMGGTIALAVLVLDMPEIGGVAGLREQLPDETFNLLPTIGGAAEGAATFSLSALAFAAYAGVQWWASWYPGAEPGGGGYIAQRMMSAKDEPNALFATLWYTIAHFCLRPWPWIIVALAALVLYPDLDEPRAGFVLVMKDVLPPGLLGLLFASFLAAFMSTVSTQLNWGVSYLVNDFWGRFVRPDADEAHYVRVSRVLTFGVALLSLVVTLFLDTIAEAWGLLLSASAGLGLVLILRWYWWRVNAWSEMAATLAPIGLTVAALVLNVFGVQVPGLQADFPLNLYSVVGFTTVVWLAATFLTRPTDAETLDAFYRTVHPGGPGWTPVAERHPDVTPDSGLGRLALDWLVGVVLVYSTLFGTGYLILGWTLWGAGCIAVALTAAAYLWRDLQRDEISLIEMKEEKDATEER | failed |
| MSNMQLDTLRRIVQEINSSVSLHDSLDIMVNQVADAMKVDVCSIYLLDERNQRYLLMASKGLNPESVGHVSLQLSEGLVGLVGQREEIVNLENASKHERFAYLPETGEEIYNSFLGVPVMYRRKVMGVLVVQNKQPQDFSEAAESFLVTLCAQLSGVIAHAHAVGNID | not failed |
| MKSEKETIYDYAAELKLLSFKEELECTLSLAAEENWNHLQFLTELLGKESARRRECRRRSRIRSAGFPQMKYLHELVMEDMPKEAQVILPELETLDFIRQGRNLVLYGNPGTGKTHIATALGIKACQQDFTVLFTSVPVLLTQIREAKSAKTLRTLQLRFEKYDLVICDEFGYVSCDKEGGELLFNHLSLRAGKKATIITTNLAFNRWNEIIKDKVLVAAMVDRLTHKAYLVNMTGLSYRLKETQKMRQDKLEHHHHHH | failed |
| MDSITQAALGASIAGAVAGKTLGRSALLTGALLGTLPDLDVVIDYGTAVANFTQHRGFSHSLFILAPLSLLIAWGLWRWKPLISYQRWLALVGLILITHPLLDAFTTYGTQLFWPIGPPVAINSIFIIDPLYTLPLLAGCLAFLYRPPASRTVAAGLLVSSLYLGWTLIAQQIITDRVRPALANAGMEQAALMVQPMPFNTVLWRATAVSAGQRIEVVTGFLDASDELVLERFPRQPELARLVAELPEARRLEWFTGGFLDYQQNGTQITATDIRLGIPGAHPFTFILAETAEDGLQPLASDRLPRPALNRAALPLLWDRMTGQVPVLCLATLSVPNHGNSC | failed |
| MDLNRMGKDEYYVQITVDGKEVHSKADNGQKYKDYEYKLTGFDKDGKEKELEFTAQKNLRKEAFLRVYHSDKKGVSAWEEVKKDELPAKVKEKLGVKLEHHHHHH | not failed |
| MKYIEPHFISFTQHTLKSQLIPKSFHGMKILQFSDLHLGYYFSLQHLSQVVSKINAVNPDIVLFTGDLIDNYQTYTDTPFVASILKNIQAPFGKFAIYGNHDHGGYGTEYYEHIMRESGFELLLNSKKRIRLMDNSEISIFGLDDILLGKPKIEKTLQHARQNTYNIVLVHEPDIAPQISKYPINLQLSGHSHGGQVQIPFLGAIITPSLAKDYIEGFYTMQDLTLYVNRGLGRTRVPFRFMSKPEITIFTLQHSLEHHHHHH | failed |
| MRQYMRTFLLVAVIFVFGFSIRMLNAGYDDPLYTDDDGLQYFQESDSYYNYRLTENLAIRGIPGDAVIGGKIWDLHSYYPPGVPLDYPAGILLLAVILHAITGVIAPVSLRAVCLIMPPLLAPLAGVICFFTVKRFQGDIPAFIAGLLLVSAPFYLVKTVYGLYDTDMLILTLSMAVLFLFIEADAREVNRVPLSAIGGFILFLFSITWSGWQVMFYVTLVTFIILILTSGSRKPLRNILGNIPTGLHGSVYPFNLFNHLELIKLIMTPLHIHDLVDKSIWYPWPDSYTTVAELQPAYMDKVLGHISPALTVLGAAGIPAYYMLYRRKGSVGLPVIFISVWIATGALMLLEGIRFVMILIAPLSVSAGIFTGILLDCSRKFRFRWIKGVLFILIIFTVSAQLAISGNMVADLKPGYNDYFEESAHWIAENTPSDAVIITEWSYGHFYASEADRPVVYDGRLAYIETLPARGVWYGSSMDPEIPTTARDYWINLSLSSENRTLSLNILRMLANSGDDAYILLKNQTGSEVQAYRIMNEILGLNRESAMDVLMHRYGFSESEALRILNMTHPMTSRKIVVVVPEKMIGLIASKGDSGDMPAGTYSLIRLKDDVIEEEIINSSGNVTVLETTDGSYRINRKYRKSLLLELIMGVNDENFSLVYRNKQIKVYIINS | failed |

Source: a protein production outcome set (Wang et al. 2014)
